# From paper PMC9025429
# Target: N36 peptide (HIV-1)
# Experiment: ELISA; competition ELISA of 6-HB formation: plate coated with the 6-HB-specific mAb NC-1; inhibitor at 0.312-20 uM with N36 (final 1 uM) and biotin-C34 (final 2 uM) in PBS, 37 °C, 1 h; streptavidin-HRP detection
# Sequence of N36 peptide (HIV-1) (P03375 546-581 limits assumed): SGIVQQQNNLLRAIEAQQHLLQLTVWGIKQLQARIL
substance,measurement,value
C10-T1144 (peptide),IC50,2420 nM
